The target of experiment [1] is T1, full-length human OX40 expressed on HuT78/OX40 cells (human, UniProt P43489 29-277).
T1 sequence: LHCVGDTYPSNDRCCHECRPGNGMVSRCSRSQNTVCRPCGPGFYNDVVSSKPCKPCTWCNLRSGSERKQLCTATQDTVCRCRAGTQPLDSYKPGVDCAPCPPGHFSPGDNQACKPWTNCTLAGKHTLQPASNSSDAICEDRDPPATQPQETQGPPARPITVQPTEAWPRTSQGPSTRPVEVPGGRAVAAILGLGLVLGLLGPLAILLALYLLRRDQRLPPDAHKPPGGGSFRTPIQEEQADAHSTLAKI
Briefly: flow cytometry on live HuT78/OX40 cells; top of fitted curve. Here is the method:
To evaluate the binding activity of anti-OX40 antibodies to bind OX40 expressed on the surface of live cells, HuT78 cells were transfected with human OX40 as described in Example 1 to create an OX40 expressing line. Live HuT78/OX40 cells were seeded in 96-well plate and were incubated with a serial dilution of various anti-OX40 antibodies. Goat anti-Human IgG-FITC (Cat: A0556, Beyotime) was used as a secondary antibody to detect antibody binding to the cell surface. EC₅₀ values for dose-dependent binding to human OX40 were determined by fitting the dose-response data to the four-parameter logistic model with GraphPad Prism.
(A flow cytometer gives signals particle by particle.)

Experiment [2] relates to CT26WT cells, a murine colon carcinoma cell line. Briefly: CT26WT syngeneic mouse model, OX86 in combination with Oxaplatin/5-Fu. It is filed as in vivo. The conditions noted are these: OX86 0.08 mg/kg QW i.p.; Oxaplatin 1.5 mg/kg QW i.p.; 5-Fu 15 mg/kg once daily five days per week i.p. Here is the method: Female BALB/c mice were subcutaneously implanted with 1×10^5 CT26WT cells, a murine colon carcinoma cell line, in 150 μL PBS in the right flank. After inoculation, the mice were randomized into 4 groups with 20 animals in each group. Mice were treated with vehicle as a control.
OX86 is a rat anti-mouse OX40 antibody previously disclosed in WO2016/057667, which was further engineered with mouse IgG2a constant regions in order to reduce its immunogenicity and also keep its Fc-mediated functions in mouse studies. The VH and VL regions of OX86 are provided below. […] As monotherapy, OX86 was administered at 0.08 mg/kg once per week (QW) by intraperitoneal (i.p.) injection.
Oxaplatin/5-Fluorouracil (5-Fu) was administered as a single agent to the mice. The OX86 antibody in combination with Oxaplatin/5-Fu was administered as combination therapy. OX86 (0.08 mg/kg) was administered once per week by intraperitoneal (i.p.) injection. Oxaplatin (1.5 mg/kg) was also dosed once per week (QW) intraperitoneally, and 5-Fu was given at 15 mg/kg once daily for five consecutive days per week by i.p. injection. […] Tumor volume was determined twice weekly in two dimensions by using a caliper and was expressed in mm^3 using the formula: V=0.5(a×b^2) where a and b are the long and short diameters of the tumor, respectively. […] Tumor growth inhibition (TGI) is calculated using the following formula: […]

B1: ch445 (antibody, V domains shown)
VH: EVQLQQSGPELVKPGASVKMSCKASGYKFTSYIIHWVKQKPGQGLEWIGYINPYNDGTRYNEKFKGKATLTSDKSSSTAYMEYSSLTSEDSAVYYCARGYYGSSYAMDYWGQGTSVTVSS
VL: DIQMTQTTSSLSASLGDRVTISCSASQGISNYLNWYQQKPDGTIKLLIYDTSTLYSGVPSRFSGSGSGTDYFLTISNLEPEDIATYYCQQYSKLPYTFGGGTKLEKK
As for B1, in experiment [1], the “Top (MFI), Mean” value came out at 725 MFI.

B2: OX86: rat anti-mouse OX40 antibody disclosed in WO2016/057667, engineered with mouse IgG2a constant regions; VH SEQ ID NO: 32, VL SEQ ID NO: 33 (antibody, V domains shown)
VH: QVQLKESGPGLVQPSQTLSLTCTVSGFSLTGYNLHWVRQPPGKGLEWMGRMRYDGDTYYNSVLKSRLSISRDTSKNQVFLKMNSLQTDDTAIYYCTRDGRGDSFDYWGQGVMVTVSS
VL: DIVMTQGALPNPVPSGESASITCRSSQSLVYKDGQTYLNWFLQRPGQSPQLLTYWMSTRASGVSDRFSGSGSGTYFTLKISRVRAEDAGVYYCQQVREYPFTFGSGTKLEIK
modifications: mouse IgG2a constant regions
Regarding B2, in experiment [2], the “Mean Tumor Volume on Day 11 (Mean ± SEM)” value amounted to 969.2 ± 229.0 mm^3 and the “TGI (%) on Day 11” value was found to be 48%.

B3: 445-2 (antibody, human IgG1, V domains shown)
VH: QVQLVQSGAEVKKPGSSVKVSCKASGYKFTSYIIHWVRQAPGQGLEWMGYINPYNEGTRYAQKFQGRVTLTADKSTSTAYMELSSLRSEDTAVYYCARGYYGSSYAMDYWGQGTTVTVSS
VL: DIQMTQSPSSLSASVGDRVTITCSASQGISNYLNWYQQKPGKAIKLLIYDASTLYSGVPSRFSGSGSGTDFTLTISSLQPEDFATYYCQQYSKLPYTFGGGTKVEIK
Take B3: the “Top (MFI), Mean” value in experiment [1] turned out to be 620 MFI.

B4: 445-1 (antibody, IgG1, V domains shown)
VH: QVQLVQSGAEVKKPGSSVKVSCKASGYKFTSYIIHWVRQAPGQGLEWMGYINPYNDGTRYNQKFQGRVTLTSDKSTSTAYMELSSLRSEDTAVYYCARGYYGSSYAMDYWGQGTTVTVSS
VL: DIQMTQSPSSLSASVGDRVTITCSASQGISNYLNWYQQKPGKAIKLLIYDTSTLYSGVPSRFSGSGSGTDYTLTISSLQPEDFATYYCQQYSKLPYTFGGGTKVEIK
notes: Full-length antibody with human wild-type IgG1 (IgG1wt) and kappa constant regions
As to B4, the “Top (MFI), Mean” value in experiment [1] amounted to 525 MFI.

B5: 445-3 (antibody, human IgG1, V domains shown)
VH: QVQLVQSGAEVKKPGSSVKVSCKASGYKFTSYIIHWVRQAPGQGLEWMGYINPYNEGTRYNQKFQGRVTLTADKSTSTAYMELSSLRSEDTAVYYCARGYYGSSYAMDYWGQGTTVTVSS
VL: DIQMTQSPSSLSASVGDRVTITCRASQGISNYLNWYQQKPDGAIKLLIYDASTLYSGVPSRFSGSGSGTDFTLTISSLQPEDFATYYCQQYSKLPYTFGGGTKVEIK
notes: Human IgG1 wild type format
As for B5, in experiment [1], the “Top (MFI), Mean” value is 910 MFI.

B6: 445-3 IgG4 (antibody, V domains shown)
VH: QVQLVQSGAEVKKPGSSVKVSCKASGYKFTSYIIHWVRQAPGQGLEWMGYINPYNEGTRYNQKFQGRVTLTADKSTSTAYMELSSLRSEDTAVYYCARGYYGSSYAMDYWGQGTTVTVSS
VL: DIQMTQSPSSLSASVGDRVTITCRASQGISNYLNWYQQKPDGAIKLLIYDASTLYSGVPSRFSGSGSGTDFTLTISSLQPEDFATYYCQQYSKLPYTFGGGTKVEIK
Consider B6, for which, in experiment [1], the “Top (MFI), Mean” value is 892 MFI.

The values above are taken from patent US20230002499A1, “METHODS OF CANCER TREATMENT WITH ANTI-OX40 ANTIBODY IN COMBINATION WITH CHEMOTHERAPEUTIC AGENTS” (BeiGene (Beijing) Co., Ltd., priority 2019, published 2023).
